Experimental data as given in the supplement of paper PMC10567573.
± gives the standard deviation.

Experiment: protein stability index of a GFP-peptide fusion (GPS, HEK-293T) (PSI 1-6); higher = more stable
[1] = treatment: DMSO, c terminus: a fixed tail appended
[2] = treatment: MLN4924 1 uM, 8 h, c terminus: a fixed tail appended
[3] = treatment: DMSO, c terminus: native
[4] = treatment: MLN4924 1 uM, 8 h, c terminus: native
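Note: 24-mer peptide tiles fused after GFP, lentivirally expressed, FACS-sorted into six equal bins by GFP/DsRed ratio, decoded by Illumina sequencing, PSI is the read-weighted mean bin number.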

Sequence | protein stability index [1] | protein stability index [2] | protein stability index [3] | protein stability index [4]
QRRSMVSPNFGFMGQLLQYESEIL [DUSP5] | 2.5 ± 0.29 | 2.45 ± 0.38 | – | –
QSIQQAMRYLRNHCLDQVGLFRKS [DLC1] | 2.73 ± 0.091 | 2.26 ± 0.28 | – | –
QSLKGHLRNNFQKQLLSNKELILD [ZC2HC1C] | 3.08 ± 0.3 | 3.17 ± 0.29 | – | –
QSVKMKDKLKIDLLPDGRHAVVEV [TAF7L] | 2.87 ± 0.32 | 3.06 ± 0.36 | – | –
QTVPKRIPERLSIFCRDTQTVFQK [IQUB] | 2.56 ± 0.43 | 2.24 ± 0.31 | – | –
QVPVVDFQAELRQAFLAETPRGG [SNURF] | – | – | 3.04 ± 0.46 | 3.19 ± 0.36
QVSQVKGAARLALLQGAGLDVERW [FCHSD1] | 2.89 ± 0.32 | 3.16 ± 0.49 | – | –
QWFAMLRAEQDSEVGPQEINKEEL [GMCL1] | 3.95 ± 0.43 | 3.81 ± 0.2 | – | –
QWILDKQDLLKERQKDLKFLSEEE [CCNC] | 4.43 ± 0.26 | 4.53 ± 0.097 | – | –
RAGGPPRPMSEPGAGAGSSLLDVA [SMAD6] | 4.39 ± 0.39 | 4.37 ± 0.39 | – | –
RCLVRCLLRREPAERLTATGILLH [TRIB3] | 2.38 ± 0.43 | 2.44 ± 0.26 | – | –
RDLINCCYVSRRLSQLSSHDPLWR [FBXO3] | 2.09 ± 0.28 | 2.31 ± 0.29 | – | –
RDNSPFDGPGGNLAHAFQPGPGIG [MMP1] | 4.05 ± 0.39 | 4.03 ± 0.17 | – | –
REQMEQMKQRIAEENIMKSNIDKK [FAM50A] | 5.08 ± 0.31 | 5.24 ± 0.11 | – | –
REVRQFQFTAWPDHGVPEHPTPFL [PTPRD] | 2.76 ± 0.24 | 2.97 ± 0.38 | – | –
RFDGLPAVLGFPGFSSGRHRWQVD [TRIM15] | 2.62 ± 0.12 | 2.54 ± 0.18 | – | –
RFSRQCVVDKDKRNQCRYCRLKKC [HNF4A] | 3.22 ± 0.46 | 3.5 ± 0.61 | – | –
RFVFADRERKKLVLENLEDSCVLT [TRIB3] | 3.18 ± 0.16 | 3.37 ± 0.17 | – | –
RGAPPPPPSRAPTAAPPPPPPSRP [WASL] | 5.11 ± 0.19 | 5.17 ± 0.2 | – | –
RGLLEYFKAYIKIYQGEDLPHPKS [ATL3] | 3.18 ± 0.84 | 2.56 ± 0.88 | – | –
RGPGASGEQPEPGEAAAGGAAEEA [ACBD3] | 5.54 ± 0.23 | 5.62 ± 0.15 | – | –
RHIHHLGNQLQLNQHCLDTAFNFF [BRF1] | 2.29 ± 0.23 | 2.3 ± 0.16 | – | –
RKRAVPCGACLTQLFFFHLFVGVD [OR3A1] | 2.82 ± 0.3 | 2.74 ± 0.45 | – | –

Sequence | protein stability index [1] | protein stability index [2] | protein stability index [3] | protein stability index [4]
RLEKAVAAAYTFLQRNPKHELTAK [P3H4] | 2.32 ± 0.12 | 2.49 ± 0.29 | – | –
RLLQAQLQAQKEELQSLMHQPKGL [PBXIP1] | 2.91 ± 0.14 | 2.9 ± 0.26 | – | –
RLRASFSRKPSLKGNREDSARMSA [PLEKHN1] | 4.08 ± 0.21 | 4.21 ± 0.078 | – | –
RLSGAGPAEEAGPEGGLEEPDALD [FOXJ1] | 5.51 ± 0.31 | 5.59 ± 0.2 | – | –
RLSSSLQGSAVTLKTSKMALSPSA [CDC14A] | 3.5 ± 0.38 | 3.65 ± 0.32 | – | –
RNGHLATVKLLVEEKADVLARGPL [RIPK4] | 3.1 ± 0.4 | 3.44 ± 0.19 | – | –
RNHGILMETHKELKPLLSPSSETT [LYSMD4] | 4.49 ± 0.14 | 4.62 ± 0.3 | – | –
RNKIIAATIENAQPILQIDNARLA [KRT16] | 3.35 ± 0.13 | 3.64 ± 0.14 | – | –
RNNANGVDLNRNFPDLNTYIYYNE [CPN1] | 3.17 ± 0.26 | 3.14 ± 0.28 | – | –
RNTGAYTSSGLATASFRTSKYLLE [TEKT4] | 3.1 ± 0.26 | 3.16 ± 0.22 | – | –
RPGGGRVKIESVKLDFKEKAQAKV [MAP2] | 4.06 ± 0.3 | 4.01 ± 0.25 | – | –
RQDLEDRYAEHVAATQALPQDSGT [C22orf31] | 5.4 ± 0.17 | 5.46 ± 0.3 | – | –
RQGPKEPPRKSGSFHSSGEKQKQP [PBXIP1] | 4.86 ± 0.27 | 5.17 ± 0.15 | – | –
RQLAYSTVGTPDYIAPEVFMQTGY [STK38L] | 3.06 ± 0.46 | 3.29 ± 0.42 | – | –
RRCGELKRKLGLTALVGLRQNLSK [TPD52L3] | 2.41 ± 0.34 | 2.57 ± 0.16 | – | –
RRCTNIRPGETGMDVTSRCTLGDP [KLHL20] | 3.99 ± 0.24 | 4.13 ± 0.21 | – | –
RRGRSPKGEFKDEEETVTTKHIHI [CLINT1] | 4.78 ± 0.14 | 4.73 ± 0.26 | – | –
RRLAQEPLGLEVDQFLEDVRLQER [NOP53] | 4.5 ± 0.16 | 4.54 ± 0.13 | – | –
RRSSLVITTKIFWGGKAETERGLS [KCNAB2] | 2.09 ± 0.42 | 2.15 ± 0.29 | – | –
RSETFLEVWGNALLRPPVAAFVRA [DNAAF3] | 2.22 ± 0.21 | 2.34 ± 0.13 | – | –
RSFKEELLCAVCYDPFRDAVTLRC [TRIM35] | 2.58 ± 0.63 | 2.61 ± 0.61 | – | –
RSFSDKQKISLLHSCTCVLYTPSN [ALG2] | 2.17 ± 0.28 | 2.1 ± 0.32 | – | –
RSRIEALELLGASFANDRENYDII [FEM1B] | 3.42 ± 0.27 | 3.52 ± 0.14 | – | –

Sequence | protein stability index [1] | protein stability index [2] | protein stability index [3] | protein stability index [4]
RSTCNVVQDEFLDTPCTNRGLPLL [DLC1] | 3.21 ± 0.27 | 3.21 ± 0.42 | – | –
RSVEEAPVYSVPQLLSAMGSLCSL [SCNN1D] | 2.44 ± 0.16 | 2.59 ± 0.4 | – | –
RTIRHVYCKTSDGRVVPESQCQME [ADAMTSL2] | 4.08 ± 0.16 | 4.09 ± 0.31 | – | –
RTLWSGLPATLVMTVPATAIYFTA [SLC25A39] | 3.07 ± 0.42 | 3.1 ± 0.68 | – | –
RVAHEPVAPPEDKESESEAKVDGE [CDS2] | 5.47 ± 0.21 | 5.63 ± 0.27 | – | –
RVHAGSKAALAALCPGDLIQAING [PDLIM4] | 2.95 ± 0.15 | 3.03 ± 0.12 | – | –
RVKREFEPASAREAPASVVPFVRV [USP39] | 3.33 ± 0.57 | 3.5 ± 0.24 | – | –
RWKRRRSYSREHEGRLRYPSRREP [CLK3] | 3.86 ± 0.39 | 4.14 ± 0.36 | – | –
RWSRVGGQRFYSRVLSPLHRGPSG | 2.9 ± 0.27 | 2.72 ± 0.42 | – | –
RYEPDSKAFGVGVAYRSLGRFEQL [FSD1] | 2.48 ± 0.38 | 2.63 ± 0.33 | – | –
SAEQLKAQAIDFINRCSVLRQLGC [SPOPL] | 2.21 ± 0.33 | 2.51 ± 0.28 | – | –
SAFTAAHELGHVFNMLHDNSKPCI [ADAMTS4] | 2.93 ± 0.094 | 3 ± 0.19 | – | –
SAGIAKLEEGDELQLAIPRENAQI [TNFSF13B] | 5.08 ± 0.25 | 4.97 ± 0.23 | – | –
SAIVLGDLKLRKFVFSTEERTQLR [TRIB1] | 2.77 ± 0.48 | 2.92 ± 0.29 | – | –
SALFAGNEWRRPIIQFVESGDDKN [TRIM29] | 4.37 ± 0.23 | 4.13 ± 0.25 | – | –
SASHYKLQVIKALKSSGLCESLTY [M1AP] | 2.03 ± 0.41 | 2.25 ± 0.59 | – | –
SCKEGLSPRGPAPGEEKFENLEGV [ZNF263] | 5.37 ± 0.16 | 5.23 ± 0.36 | – | –
SDDLERTIEERVNILFDFVKKKKE [EIF5] | 3.97 ± 0.19 | 4.2 ± 0.32 | – | –
SDENGGTYVSPPGNEEEESKIFTT [DDIT3] | 5.53 ± 0.36 | 5.49 ± 0.31 | – | –
SEAKADKILAEAAKLVPMGFTTAT [RAD51] | 3.93 ± 0.25 | 3.93 ± 0.13 | – | –
SEASKAFQMEKIEHGYENMNHFTV [TRIM55] | 3.29 ± 0.21 | 3.38 ± 0.28 | – | –
SEAWEYFHLAPARAGHHPNQYATC [ZBED2] | 2.59 ± 0.26 | 2.58 ± 0.23 | – | –
SEDMWGDEDFTFGAYQPTVVSSEG [FBF1] | 4.53 ± 0.23 | 4.84 ± 0.23 | – | –

Sequence | protein stability index [1] | protein stability index [2] | protein stability index [3] | protein stability index [4]
SFAILRIIRLVRVFRIFKLSRHSK [KCNA4] | 2.2 ± 0.4 | 2.44 ± 0.15 | – | –
SFSGKVFPFFAVWKKGSCLTLKG [TRIM15] | – | – | 3.25 ± 0.88 | 2.92 ± 0.61
SGSDSGGSSSSSSSSINSPDRASG [FAM104A] | 5.36 ± 0.33 | 5.47 ± 0.11 | – | –
SGVVRIWDLRDQSVVRDLKGYPDG [TLE6] | 3.3 ± 0.31 | 3.42 ± 0.23 | – | –
SHRVVLRPRGKERHKSGVHQPPQA [LYSMD4] | 3.91 ± 0.2 | 3.98 ± 0.3 | – | –
SIPVTELSASGPFESHDLLRKGFS [POMP] | 3.5 ± 0.25 | 3.39 ± 0.34 | – | –
SKIPFKILSGHEHAVSTCHFCVDD [WDR88] | 2.91 ± 0.25 | 3.07 ± 0.26 | – | –
SKSKEEVSSLISEKTNGATPLLMA [FEM1C] | 4.26 ± 0.42 | 4.49 ± 0.24 | – | –
SLFCLEDKELLCCSCQADPRHQGH [TRIM35] | 3.06 ± 0.16 | 3.35 ± 0.4 | – | –
SLGVDTLPPPDPNPPRAEFNYSVG [APBB1IP] | 4.1 ± 0.31 | 4.44 ± 0.22 | – | –
SLLSLPVWVLMDEDVRIFFYQSPY [NCF4] | 2.56 ± 0.24 | 2.66 ± 0.47 | – | –
SLNELMIVIGILSAYISNYAFANV [SLC2A12] | 3.35 ± 0.31 | 3.18 ± 0.39 | – | –
SLRENDFIEIELDRQELTYQELLR [ANKRD40] | 3.37 ± 0.62 | 3.57 ± 0.39 | – | –
SMALTCTFNRWGTLLAVGCNDGRI [RBBP5] | 2.48 ± 0.33 | 2.35 ± 0.34 | – | –
SNLSVENVADTLVLADLHSAEQLK [SPOPL] | 4.65 ± 0.27 | 4.61 ± 0.19 | – | –
SNYYVAHPPVTYSQPYPTWLPCN [TENT5C] | – | – | 3.25 ± 0.19 | 3.44 ± 0.68
SPDGALLATASYDTRVYIWDPHNG [WSB1] | 2.5 ± 0.41 | 2.51 ± 0.6 | – | –
SPKYKQDVEGAESQLDEDEHGLHT [TRAF3IP2] | 5.45 ± 0.14 | 5.5 ± 0.27 | – | –
SPRDLQFSEIRETSAKVNWMPPPS [TNXB] | 3.73 ± 0.23 | 3.69 ± 0.29 | – | –
SPSVPCIFCEEHFPVAEQDKLLKH [ZNF277] | 4.16 ± 0.24 | 4.37 ± 0.084 | – | –
